The values below come from the supplement of paper PMC12764529.

± gives the half width of the 95% confidence interval. Where only a bound is given, the exact number is not on record here.

The nature of data set [1]: folding stability dG unfold from chymotrypsin proteolysis; higher = more stable. As to the method: (§1)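 Folding stability of de novo designed mini-proteins (<80 aa, no Cys; designed by TrROS, TrMRF, ProteinMPNN and the joint model) was measured by cDNA display proteolysis with trypsin and chymotrypsin. Each protease was used at 11 concentrations in a threefold dilution series plus a no-protease condition. K50 was inferred by Bayesian fitting of sequencing counts, and dG unfold was derived against a sequence-predicted unfolded-state K50 (Tsuboyama et al. method). Sequences shown include variable-length N-terminal GS-type padding (SAGGSAGG...) inside a display construct carrying a PA tag. Rows were kept only if the AF2 dimer inter-PAE was >15, to exclude likely homo-oligomers.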

Data set [2] can be described thus: folding stability dG unfold (combined trypsin and chymotrypsin); higher = more stable. The method, then: as §1

As for “KKRTIEIPFPANGYKVKIEVPEDQGKPIDEEEIQKLLREWHPDMPADDMPAKEIAKYLADEPGIKEVEIERS [r1_463_TrROS]”, the “folding stability dG unfold” value in data set [1] came to 0.479 ± 0.25 kcal/mol; in data set [2], 0.132 ± 0.28 kcal/mol.
Regarding “MDIPIKELLKKAAENGVRIVFPNGAETLSIFPDGEAVVRFPVELPDRPGIPVEEVERVIKIKEDGSLEVEGS [r1_284_TrMRF]”, the “folding stability dG unfold” value in data set [1] was -1.08 ± 0.65 kcal/mol; in data set [2], below -1 kcal/mol.
In the case of “MTPEAFAGPGGRPLAELFLARFRRPVLDPETGLPTWEPAGVLVFPRETEPEELAAIFEALPELEEIEIAPAS [r1_132_TrMRF]”, the “folding stability dG unfold” value in data set [1] is 0.149 ± 0.22 kcal/mol; in data set [2] it was -0.149 ± 0.22 kcal/mol.
“PEISELTSEESEDGTTFTETKVTLKDPNSNKKINATRKVETEVVGDSTTVTSTLTLPKDKKTINESYTISPS [r1_374_JUSTAS]”: the “folding stability dG unfold” value in data set [1] is -0.591 ± 0.61 kcal/mol; in data set [2], below -1 kcal/mol.
Take “PGEMVPIEWPVKVRVRDPNGPGNKKREVEIPIEYPYPPGQKDPEQMLEMAHELAEELAEKEGPKDVEIEPIS [r1_300_TrROS]”: the “folding stability dG unfold” value in data set [1] was 0.271 ± 0.13 kcal/mol; in data set [2], -0.474 ± 0.31 kcal/mol.
Regarding “SADKVIIPFDSPEEIKGIIKEARKAGIPGKEIVIWSEDDWMYKIEVDPNKGNVEIEPVMPPEDLNDEMPSAG [r14_913_TrROS]”, the “folding stability dG unfold” value in data set [1] turned out to be 0.629 ± 0.048 kcal/mol; in data set [2], 0.0128 ± 0.12 kcal/mol.
For the sequence “SAGAAAIAEKLGFSPELVEILSVEDVEYTIVVRRTGEPVKMKRPTVKVLVTDPSVPKETTAEVPVAELASAG [r5_517_JUSTAS]”, the figures for the “folding stability dG unfold” value in data set [1] and in data set [2] were -0.807 ± 0.57 kcal/mol and -0.714 ± 0.35 kcal/mol, respectively.
For “SAGDLGEEALKDITENSTPVSPNETRTTTAVIKYKDKLVKITTTVKVPPESGTTVLSTPIEIFSPEELKSAG [r5_96_JUSTAS]”, the figures for the “folding stability dG unfold” value in data set [1] and in data set [2] were -0.118 ± 0.33 kcal/mol and below -1 kcal/mol, respectively.
For “SAGEVETRTLPDGSVEIRRVERDPNSDQEVETRERVTFDPATGTARVPREVYRGDRWETEERVIALPASAGG [r19_289_JUSTAS]”, the results for the “folding stability dG unfold” value in data set [1] and in data set [2] were 0.456 ± 0.16 kcal/mol and -0.38 ± 0.27 kcal/mol, respectively.
On the same counts, the results for “SAGGATTERTFTFPSSVSPEEAAAAVAAEAPPGLRVDVAPVATRADPSGVTTTTLRARFTDPAAPAAASAGG [r13_12_JUSTAS]” are 0.297 ± 0.12 kcal/mol and below -1 kcal/mol.
As for “SAGGDSLPENVIKIELEFEIETEDGSKIELKLEIYISPDNKIYVKAEATIILPDKPIKIEIDFEFDVSAGGS [r16_563_TrMRF]”, the “folding stability dG unfold” value in data set [1] was determined as 3.35 ± 0.27 kcal/mol; in data set [2], 3.59 ± 0.88 kcal/mol.
“SAGGELLEDLNIKEIEVTEVKTYRNPENGMRMYEPTLTIKNPDGEKIKFTIEHMYDPGNPKPMIHIMSAGGS [r8_422_TrROS]”: in data set [1], the “folding stability dG unfold” value is -0.212 ± 0.52 kcal/mol.
On to “SAGGENVIIRYKDPDRFKEAIQDAPGIPPENVKTKPNPNGWNEVTFPNPEALDRLKKAGYPVDKIEPSAGGS [r16_381_TrROS]”, for which the “folding stability dG unfold” value in data set [1] is -0.351 ± 0.38 kcal/mol; in data set [2] it was below -1 kcal/mol.
On to “SAGGESIVIPVKTLEEAKKVAEEIKEKFEKLGYKVEIFEEPETGRIIVKVTKKDKGTVSTTIITFPVPSAGG [r13_641_JUSTAS]”, for which the “folding stability dG unfold” value in data set [1] stood at 4.21 ± 0.76 kcal/mol.
Turning to “SAGGGMSPVGTTTSTSPSGVVTTTTTLEAPPPVVTTTTTTTTPVPPPLPPRPPYGPENRARALARAASAGGS [r16_6_JUSTAS]”, the “folding stability dG unfold” value in data set [1] is -0.146 ± 0.39 kcal/mol; in data set [2] it was below -1 kcal/mol.
The corresponding values for “SAGGGPPGVVKPFTEETTFTVPLAGGPPVEVKTTTTTYTSADPAKRSLVTTTTTSPQNATTTTVTPLSSAGG [r13_654_JUSTAS]” are -0.2 ± 0.23 kcal/mol and below -1 kcal/mol.
“SAGGGSMVVEKPVALPPDTDVEEVAKEVAEELFPEDEKYKIEVERYPDSVRITVYDPKNGKPVIETVDSAGG [r13_724_JUSTAS]”: the “folding stability dG unfold” value was -0.565 ± 0.45 kcal/mol in data set [1] and below -1 kcal/mol in data set [2].
As for “SAGGIKVKITDEDGEEKTFKVKDINVNKSPNNGMPSLKIKLANGRPWVIMIPPGRPLEPGDEITVRPLSAGG [r13_390_TrROS]”, the “folding stability dG unfold” value in data set [1] was -0.371 ± 0.93 kcal/mol; in data set [2], -0.452 ± 0.63 kcal/mol.
Regarding “SAGGKKKVVIKVEVKNKKTGKTFEKEIVIEIDENETEEQILEKAKELAKKLAEENGLEVKIVEIKPLSAGGS [r8_312_TrROS_Hall]”, the entries for the “folding stability dG unfold” value in data set [1] and in data set [2] were 3.84 ± 0.18 kcal/mol and 4.43 ± 0.25 kcal/mol, respectively.
Consider “SAGGKLKEAFEKNGYKAYVHPDSPVVTVEFYKPVKLENGEWKPKKLGTKTIEVDGVDLEKAYEILLKESAGG [r13_924_TrMRF]”, for which the “folding stability dG unfold” value in data set [1] was found to be 0.935 ± 0.29 kcal/mol; in data set [2], 0.402 ± 0.2 kcal/mol.
The corresponding values for “SAGGKPGEPVKIKMRGPDGQPMTFPFYAPEPVKIKMNNPGEEHEHTIPPGEPLTFPLPPGDIEVEPVSAGGS [r16_456_TrROS]” are 0.315 ± 0.2 kcal/mol and -0.171 ± 0.2 kcal/mol.
In the case of “SAGGLEEVAQELEAQGGEVEVRKVGGGSTEITVRLREPEAPRLLEVRLSLPPAGARLQVLSREALPPSAGGS [r16_613_JUSTAS]”, the “folding stability dG unfold” value was -0.704 ± 0.51 kcal/mol in data set [1] and below -1 kcal/mol in data set [2].
“SAGGMPPNATLSGKRVDFKPVPHPDGKTLLKIYYNGKPIEEIEVPPGEAEKLIAELPENTNIVTLPESAGGS [r8_41_JUSTAS]”: the “folding stability dG unfold” value in data set [1] is -0.33 ± 0.58 kcal/mol.
On the same count and under the same terms, next, “SAGGSAGGSAGPEEFEVLEMEAELNPETGEITVRFGSPEGEEITYTVTRPGELENLKLYASAGGSAGGSAGG [r11_711_TrMRF]”: -0.136 ± 0.39 kcal/mol.
Regarding “SAGGSAGGSYLVKIEWRHNGKPIEQTIPIDPGELPLEDIASNFPGYPWKIKVMDPNGEERPFTSAGGSAGGS [r12_540_TrROS]”, the “folding stability dG unfold” value in data set [1] is -0.0033 ± 0.33 kcal/mol.
“SAGGSAMNVKSKETVEELFSESPEKVSIKKTTTYTFPNSKTVEITYYKPDGKKIATKNLPLSEYSSSAGGSA [r15_755_JUSTAS]”: the “folding stability dG unfold” value in data set [1] was -0.238 ± 0.59 kcal/mol.
Still for that read-out and setting: the same measure for “SAGWVVIEIPKKEIPINPENVQIQEDNDRRYIFIPGEDADELKDQFPNKDVKIEPMPPEQMDRFMKQLSAGG [r19_271_TrROS]”: -0.242 ± 0.55 kcal/mol.
As for “SAMKIYVAPGPFTVTARPALPGGEEITITTPITPEQVADPAFLEALVQALEDAGVPATYSILPAGVALPSAG [r14_60_JUSTAS]”, in data set [1], the “folding stability dG unfold” value came to 0.597 ± 0.22 kcal/mol.
For the sequence “SAMVKTKDGKELEITRKAKPDELTEEEIKALAEEEVKKLVPEDLEVEVEVEISREPDGTYVVSVPVKKKSAG [r14_389_JUSTAS]”, the “folding stability dG unfold” value in data set [2] was below -1 kcal/mol.
On the same count and under the same terms, the same measure for “SANKFSPEEYAEWMIRTARRQVKENRQQGDPEKPKKVTIHFWEEHFPPYRKRIKKEAKEDGLPVEIEPPSAG [r14_908_TrROS]”: below -1 kcal/mol; for “SAPPLPPDAVVETESEPVGVDPTENGTLTYYRRTVRVTLPDGSLTLESLVFRDPATGSSTSSVLRETALSAG [r14_293_JUSTAS]”: below -1 kcal/mol.
For “SASDEDQKKQQEQQKPPIKPPEFPVKLNGKKIEKIRFNPPTDRIWFEWPNGKEIPIDPGMSLEEILKKISAG [r14_59_TrROS]”, the “folding stability dG unfold” value in data set [2] is below -1 kcal/mol.
With “SASLPEKLAKELLPEAKEIKILEVKTEPDPNSDRPVTTVKMEAELEGGKKKLTVTLSPGPLKIKVTPEPSAG [r14_397_JUSTAS]”, the “folding stability dG unfold” value in data set [2] is below -1 kcal/mol.
On the same count and under the same terms, the same measure for “SAVKVEEKDDVTIKTYTEPEGGLELVETIDKNGNLIAKTEIKVERKPDAKGNLYVTKVSTKTTVLNPNPISA [r9_262_JUSTAS]”: below -1 kcal/mol; for “SDAIKNQTIEELLDQLPPGDEPGEPKEFTIPGYEIKITDFEPEKDDGGGPRPRRVIEVEDPNGPIEIPIESA [r9_279_TrROS]”: below -1 kcal/mol.
In the case of “SDDDFADSPEAKKNMENMKPVPPPPTITINVKGDDPEDALDDIREHFPGLDPSNIKSVETTDGTLTITFQSA [r9_723_TrROS]”, in data set [2], the “folding stability dG unfold” value is below -1 kcal/mol.
Same read-out and setting: the same measure for “SDPQQLPPELIDNIAKEFPHIKAIEIQPHPPGMVHVDAEYRDDGKEKRVEFQIPNPNGNTHQFEIEIRKPSA [r9_678_TrROS]”: below -1 kcal/mol; for “SGDSIHIPPNDLEYAKRIVKDLLDNGRDTIMMNSPEYKKELKEALPGVKVEPVPPMPPPPPSPEDKDKLNSA [r9_639_TrROS]”: below -1 kcal/mol; for “SMPTTVLGSSPSVLPDGSVRYPVAVRRYPEYGVLVEETVTYFPGSGKFVPERRVEIPPDNPAALEWVRRESA [r9_980_JUSTAS]”: below -1 kcal/mol.
As for “SMTLEEALANPEKLAEELAPPPTPAVDEEIDIVDPLTNTTRPARATVLLEPGRRVIVLPEDGAEYPVDPESA [r9_548_JUSTAS]”, the “folding stability dG unfold” value in data set [2] is below -1 kcal/mol.
With “SNAKDLARELFEEHGYPIEPESIDPDEDWVTFRFEPPGEPPYDISIDVDPEEGKLKVTIDPQNGYITIPVSA [r9_1119_TrROS]”, the “folding stability dG unfold” value in data set [2] was below -1 kcal/mol.
Consider “SPEGKDEKGVSYPIIVEKPDPKITPEKIKKAIEEAGGKVTKIVRPKKGKLLVVDVEVTDPEKAIEAIKKDSA [r9_1154_TrMRF]”, for which the “folding stability dG unfold” value in data set [2] is below -1 kcal/mol.
Consider “SSLDDLSPEQAVDQAKFMVRMIRESRDNGKPEQYPKMINMLRRMASSAPPPDRKAVKEVLEEFKIPPEWFSA [r9_182_TrROS]”, for which the “folding stability dG unfold” value in data set [2] was below -1 kcal/mol.
Regarding “SVRPDEPVRITVRFPARPVTRYRARPTGPFLGAEPVPVPSATLTLTVPAADLEAVLDALRPLGVEVEVDPSA [r9_167_TrMRF]”, in data set [2], the “folding stability dG unfold” value is below -1 kcal/mol.
Consider “SVVTPYPDGTVVETEPVGDTVLRLVRRPRPLPGGEPVERTTVVLEPVSTRPLPNGELVTERPVLEEEHHHSA [r9_235_JUSTAS]”, for which the “folding stability dG unfold” value in data set [2] was below -1 kcal/mol.
For the sequence “VSPEEKEKLEKLAAEPKPIKRTLEITTVKSEGPVELYVFTKKYFVPGKGEEVGEEVVVVPPEEVEELLAELS [r1_415_JUSTAS]”, the “folding stability dG unfold” value in data set [2] was below -1 kcal/mol.
On the same count and under the same terms, next, “WIRIPNGQPFRIKAKMKNPDGDDRKHTGKIPMEELGQKNGRPITPEDILDEIKEEARDHGAPVEDVEIEYYS [r1_338_TrROS]”: below -1 kcal/mol.
“YEIKDVEFPPYEHPGQEYPMFKIEVKDENGKPKKKVYINPNSGQLIPPGQSLEDMPMPPPFRKFAKELADES [r1_354_TrROS]”: the “folding stability dG unfold” value in data set [2] was below -1 kcal/mol.
